Laboratory results published in patent US20250270319A1 (Alector, published 2025).
Residue numbers refer to the chain shown, from its start.

B1: anti-CD33 antibody 6C7H10 (antibody, IgG1, V domains shown)
VH: EVQLVESGGGLVQPGGSLRLSCAASGFTFSEYAMNWVRQAPGKGLEWVGEIRLKSNNYVTNYAASVKGRFTISRDDSKNSVYLQMNSLKTEDTGVYYCTRAGYYVPFAYWGQGTLVTVSS
VL: QLVLTQSPSASASLGASVKLTCTLSSQHSTYTIEWYQQQPEKGPRYLMELKKEGSHSTGDGIPDRFSGSSSGAERYLTISSLQSEDEADYYCGVGDTIKEQFVYVFGGGTKLTVL
notes: VH/VL only; also called 6C7H10 IgG1
B2: 6C7H10 IgG1 SELF (antibody)
chain 1: not shown
chain 2: B1 VL
B3: 6C7H10 IgG1 LALAPS (antibody)
chain 1: not shown
chain 2: B1 VL
B4: 6C7H10 IgG2 (antibody)
chain 1: EVQLVESGGGLVQPGGSLRLSCAASGFTFSEYAMNWVRQAPGKGLEWVGEIRLKSNNYVTNYAASVKGRFTISRDDSKNSVYLQMNSLKTEDTGVYYCTRAGYYVPFAYWGQGTLVTVSSASTKGPSVFPLAPCSRSTSESTAALGCLVKDYFPEPVTVSWNSGALTSGVHTFPAVLQSSGLYSLSSVVTVPSSNFGTQTYTCNVDHKPSNTKVDKTVERKCCVECPPCPAPPVAGPSVFLFPPKPKDTLMISRTPEVTCVVVDVSHEDPEVQFNWYVDGVEVHNAKTKPREEQFNSTFRVVSVLTVVHQDWLNGKEYKCKVSNKGLPAPIEKTISKTKGQPREPQVYTLPPSREEMTKNQVSLTCLVKGFYPSDIAVEWESNGQPENNYKTTPPMLDSDGSFFLYSKLTVDKSRWQQGNVFSCSVMHEALHNHYTQKSLSLSPGK
chain 2: B1 VL
B5: 6C7H8 IgG1 LALAPS (antibody, V domains shown)
VH: B1 VH with A24G, E31N, A33C, G49A
VL: B1 VL
B6: 6C7H54 IgG1 PS (antibody)
chain 1: not shown
chain 2: B1 VL with V3M, E41G, D96H
B7: 6C7H54 IgG2 (antibody)
heavy: B4 chain 1 with A24G, E31N, A33E, G49A
light: QLMLTQSPSASASLGASVKLTCTLSSQHSTYTIEWYQQQPGKGPRYLMELKKEGSHSTGDGIPDRFSGSSSGAERYLTISSLQSEDEADYYCGVGHTIKEQFVYVFGGGTKLTVLGQPKAAPSVTLFPPSSEELQANKATLVCLISDFYPGAVTVAWKADSSPVKAGVETTTPSKQSNNKYAASSYLSLTPEQWKSHRSYSCQVTHEGSTVEKTVAPTECS
B8: anti-CD33 antibody 6C7H47 (antibody, V domains shown)
VH: B1 VH with A24G, E31N, A33E, G49A
VL: B1 VL with V3M, E41G, D96H, V105E
notes: VH/VL only
B9: anti-CD33 antibody 6C7H45 (antibody, V domains shown)
VH: B1 VH with N35L
VL: B1 VL with V3M, E41G, D96H, V105E
notes: VH/VL only
B10: anti-CD33 antibody 6C7H37 (antibody, V domains shown)
VH: B1 VH with N35L, A108T
VL: B1 VL with V3M, E41G, D96H
notes: VH/VL only
B11: anti-CD33 antibody 6C7H42 (antibody, V domains shown)
VH: B1 VH with A33D, N35L, S77T
VL: B1 VL with L2P, V3M, E41G, D96L
notes: VH/VL only
B12: anti-CD33 antibody 6C7H50 (antibody, V domains shown)
VH: B1 VH with A33D, N35L
VL: B1 VL with V3M, E41G, D96H
notes: VH/VL only
B13: anti-CD33 antibody 6C7H38 (antibody, V domains shown)
VH: B1 VH with N35L, A108T
VL: B1 VL with L2P, V3M, E41G, D96L
notes: VH/VL only
B14: anti-CD33 antibody 6C7H52 (antibody, V domains shown)
VH: B1 VH with N35L
VL: B1 VL with V3M, E41G, D96H
notes: VH/VL only
B15: anti-CD33 antibody 6C7H51 (antibody, V domains shown)
VH: B1 VH with N35L
VL: B1 VL with L2P, D96V
notes: VH/VL only
B16: anti-CD33 antibody 6C7H48 (antibody, V domains shown)
VH: B1 VH with A24G, E31N, A33E, G49A
VL: B1 VL with L2P, V3M, E41G, D96L
notes: VH/VL only
B17: anti-CD33 antibody 6C7H53 (antibody, V domains shown)
VH: B1 VH with A24G, E31N, A33E, G49A
VL: B1 VL with L2P, D96V
notes: VH/VL only
B18: anti-CD33 antibody 6C7H44 (antibody, V domains shown)
VH: B1 VH with A33D, N35L
VL: B1 VL with L2P, V3M, E41G, D96L
notes: VH/VL only
B19: anti-CD33 antibody 6C7H46 (antibody, V domains shown)
VH: B1 VH with N35L
VL: B1 VL with L2P, V3M, E41G, D96L
notes: VH/VL only
B20: anti-CD33 antibody 6C7H43 (antibody, V domains shown)
VH: B1 VH with A33D, N35L
VL: B1 VL with V3M, E41G, D96H, V105E
notes: VH/VL only

Biological target: T1, recombinant human CD33 protein (Sino Biologicals) (human, UniProt P20138 18-259)
T1 construct: Bought protein; also called recombinant CD33
T1 sequence (P20138 18-259 limits assumed): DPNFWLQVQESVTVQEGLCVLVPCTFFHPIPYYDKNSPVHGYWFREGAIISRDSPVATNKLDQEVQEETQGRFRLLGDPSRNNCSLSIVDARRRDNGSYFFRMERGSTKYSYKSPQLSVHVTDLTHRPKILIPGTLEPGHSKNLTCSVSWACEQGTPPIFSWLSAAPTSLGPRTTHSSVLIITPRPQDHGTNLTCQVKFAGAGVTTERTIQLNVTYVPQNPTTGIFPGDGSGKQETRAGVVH
Experiment: BLI (ForteBio), antibody on anti-human Fc sensor, CD33 10 nM
Description: Affinity parameters of the antibody variants for human CD33 were measured by BioLayer Interferometry in a ForteBio assay according to standard techniques (Estep et al. (2013) MAbs 5(2): 270-8) and were compared to those of the parental antibody (antibody 6C7H8) and the parental humanized antibody (antibody 6C71H5). Briefly, the antibodies were captured on anti-human Fc Biosensors (Pall ForteBio). Recombinant human CD33 (10 nM, Sino Biologicals) was then bound to the captured anti-CD33 surface (200 s association time, 1200 s dissociation time). Local fitting was used to extract association and dissociation rate constants (kₐ and kd, respectively) for each antibody. Apparent affinity constants (KD) were calculated from the ratio kd/kₐ.

Binder	Kd	koff	kon
B1	0.561 nM	0.000823 s⁻¹	1.47e+06 M⁻¹ s⁻¹

Biological target: T2, human CD33 on primary human dendritic cells (human, UniProt P20138 18-364)
T2 sequence (P20138 18-364): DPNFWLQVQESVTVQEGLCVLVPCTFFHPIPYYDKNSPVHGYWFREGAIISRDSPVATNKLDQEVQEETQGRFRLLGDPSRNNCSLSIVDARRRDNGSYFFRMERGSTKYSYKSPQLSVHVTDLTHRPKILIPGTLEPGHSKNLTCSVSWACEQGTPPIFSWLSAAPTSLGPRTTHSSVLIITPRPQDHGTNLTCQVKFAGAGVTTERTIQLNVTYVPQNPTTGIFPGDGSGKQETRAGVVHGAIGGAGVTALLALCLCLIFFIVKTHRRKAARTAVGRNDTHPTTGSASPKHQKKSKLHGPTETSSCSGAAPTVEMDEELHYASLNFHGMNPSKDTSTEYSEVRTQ
Experiment: cell-based or functional assay

Binder	Maximal downregulation (% CD33 remaining)	Receptor downregulation, (pM, EC50)	Fold change in potency from IgG1
B1	21.2 % CD33 remaining	778 pM	–
B2	19.6 % CD33 remaining	30.1 pM	25.8 fold
B3	62.3 % CD33 remaining	1350 pM	0.58 fold
B4	24.2 % CD33 remaining	772 pM	1.01 fold
B5	67.4 % CD33 remaining	83.7 pM	0.93 fold
B6	23.9 % CD33 remaining	12.6 pM	2.4 fold
B7	14.3 % CD33 remaining	25.3 pM	1.2 fold

Biological target: T3, recombinant cynomolgus CD33 protein (NovoProtein) (cynomolgus)
T3 construct: Bought protein; also called cyno CD33
T3 sequence (chain, as listed by the source limits assumed): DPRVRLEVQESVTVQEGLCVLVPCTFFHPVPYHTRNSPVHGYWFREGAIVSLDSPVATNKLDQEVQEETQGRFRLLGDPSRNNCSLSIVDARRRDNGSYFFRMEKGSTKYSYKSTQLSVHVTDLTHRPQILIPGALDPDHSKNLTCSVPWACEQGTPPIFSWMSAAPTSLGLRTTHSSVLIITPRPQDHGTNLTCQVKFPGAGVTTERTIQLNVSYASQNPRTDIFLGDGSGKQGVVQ
Experiment: ELISA, plate coated with recombinant CD33

Binder	EC50	Relative maximal binding (cyno/human)	Relative potency (human/cyno)
B8	0.42 nM	0.43	0.52
B9	–	0.31	–
B10	5.62 nM	0.45	0.05
B11	–	0.08	–
B12	–	0.21	–
B13	4.87 nM	0.36	0.04
B14	1.7 nM	0.47	0.14
B15	–	0.08	–
B16	1.19 nM	0.53	0.14
B17	25.6 nM	0.39	0.01
B18	–	0.09	–
B19	16.8 nM	0.23	0.01
B20	–	0.11	–

Biological target: T1, recombinant human CD33 protein (Sino …)
Experiment: ELISA, plate coated with recombinant CD33

Binder	EC50
B8	0.22 nM
B9	0.15 nM
B10	0.26 nM
B11	0.2 nM
B12	0.22 nM
B13	0.21 nM
B14	0.23 nM
B15	0.19 nM
B16	0.17 nM
B17	0.18 nM
B18	0.18 nM
B19	0.19 nM
B20	0.17 nM

Biological target: T2, human CD33 on primary human dendritic …
Experiment: cell-based or functional assay
Remark: another data set of the same source

Binder	Fold increase in potency compared to 6C7H5	Maximal reduction in CD33 (% remaining)	Receptor downregulation, (EC50) (pM)
B1	0.1 fold	21.2 % remaining	778 pM

Biological target: T2, human CD33 on primary human dendritic …
Experiment: cell-based or functional assay
Remark: another data set of the same source

Binder	Fold increase in potency compared to 6C7H5	Receptor downregulation, (EC50) (pM)
B8	0.7 fold	59 pM
B9	1 fold	44.5 pM
B10	0.7 fold	59.3 pM
B11	1.1 fold	39.4 pM
B12	0.7 fold	57.8 pM
B13	1.6 fold	27 pM
B14	0.9 fold	47.7 pM
B15	1 fold	42.4 pM
B16	0.8 fold	56.3 pM
B17	1.2 fold	35.4 pM
B18	0.9 fold	45.7 pM
B19	0.7 fold	61.7 pM
B20	0.9 fold	49.8 pM
